Changes are numbered by the printed parent chain.
Legend:
[1] = target: T1, human IgE CH3-CH4-M1′/Fc fusion protein (human); test: SPR Biacore 2000, M1′-Fc immobilized
T1 construct: also called M1′ (immobilized)

[2] = target: T2, cyno IgE/M1′ expressed on transduced Daudi cells (human IgE/primate M1′ cassette, cynomolgus) (cynomolgus monkey); test: Scatchard analysis on cells expressing cyno IgE/M1′
T2 construct: The construct is described as a 'human IgE/primate M1′ cassette'; also called Cyno M1′
T2 chain: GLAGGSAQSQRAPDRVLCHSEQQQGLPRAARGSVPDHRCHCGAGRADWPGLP

[3] = target: T3, human IgE with the M1′ sequence (long form of membrane IgE) expressed on transduced BJAB or Daudi cells (human, UniProt P01854 116-546); test: Scatchard analysis on cells expressing human IgE/M1′
T3 construct: Full-length heavy and light chains of the U266 IgE B cell receptor, retrovirally expressed; also called IgE/M1′; IgE-M1′
Protocol: The BJAB or Daudi cells expressing various forms of IgE with or without M1′ (Human, Rhesus, Cyno) were prepared for binding in cold Binding buffer composed of base media, with 10 mM HEPES pH 7.4, and 2% FBS as well as 40 ug/ml human IgG. Cells are diluted to concentration of 1.7×10⁶ cells/ml, and kept on ice until they are added to the assay. The proteins/antibodies are iodinated with the Iodogen method. Various concentrations of cold protein are prepared in triplicate, using a 1:2 dilution starting with the saturation concentration and ending at a concentration of zero, with a total of 14 concentrations. Hot protein of a single concentration is added to all dilutions compete with the cold protein. Lastly the cells are added to the hot and cold protein mixture, 250,000 cells per sample were used. Assay is kept at 4° C. for 4 hours, shaking. Each sample is then collected and filtered on membrane, washed at least 3 times with binding buffer, allowed to dry and then counted for 1 minute using Perkin Elmer Wizard 1470 Auto Gamma Counter.

[4] = target: T4, rhesus IgE/M1′ expressed on transduced Daudi cells (human IgE/primate M1′ cassette, rhesus) (rhesus monkey); test: Scatchard analysis on cells expressing rhesus IgE/M1′
T4 construct: The construct is described as a 'human IgE/primate M1′ cassette'; also called Rhesus M1′
T4 chain: T2 chain with R38H

M1' peptide 1 = target: T5, M1' peptide 1; test: ELISA on coated antigen, relative OD450/650
T5 peptide: ASPSQTVQRAVSVNP
Protocol: (§1) 15 peptides were generated spanning the sequence surrounding and including human M1′ (Clifford Quan) (FIG. 5A). Peptides were resuspended in either dH20 or 50% DMSO. […] 0.05% Tween-20, 10 ppm Proclin., 0.2% BgG, 0.25% Chaps, 5 mM EDTA, 0.35M NaCl]. […] Plates were then incubated for 2 hours at room temperature. Murine antibody plates were washed 3 times and then anti-mouse IgG1-Biotin (BD Biosciences (A85-1) #553441) was added (1:10,000, 100 μl per well) and incubated for 1 hour at RT. Following 3 washes, SA-HRP (BD Biosciences #554066) was added (1:20,000, 100 μl per well) and incubated for 1 hour. Human IgG1 antibody plates were washed as before and anti-hulgG.Fc-HRP (Jackson ImmunoResearch (#109-036-098)) was added (1:10,000, 100 μl per well) and incubated for 1 hour at RT. Once secondary incubations were complete, plates were washed 6 times and TMB substrate (BD OptEIA #555214) was added (100 μl per well). The substrate-HRP reaction was stopped with 1M H3PO4 after ˜4 minutes. Plates were then read at 450/650. Data was represented as relative OD (OD₄₅₀/CD650).

M1' peptide 14 = target: T6, M1' peptide 14; test: ELISA on coated antigen, relative OD450/650
T6 construct: see f1
T6 peptide: VCVEEAEGEAPWTWT
Protocol: as §1

M1' peptide 15 = target: T7, M1' peptide 15; test: ELISA on coated antigen, relative OD450/650
T7 construct: see f1
T7 peptide: AEGEAPWTWTGLCIF
Protocol: as §1

M1' peptide 2 = target: T8, M1' peptide 2; test: ELISA on coated antigen, relative OD450/650
T8 construct: see f1
T8 peptide: TVQRAVSVNPGLAGG
Protocol: as §1

M1' peptide 3 = target: T9, M1' peptide 3; test: ELISA on coated antigen, relative OD450/650
T9 construct: see f1
T9 peptide: GLAGGSAQSQRAPDR
Protocol: as §1

M1' peptide 6 = target: T10, M1' peptide 6; test: ELISA on coated antigen, relative OD450/650
T10 construct: see f1
T10 peptide: VLCHSGQQQGLPRAA
Protocol: as §1

M1' peptide 9 = target: T11, M1' peptide 9; test: ELISA on coated antigen, relative OD450/650
T11 construct: see f1
T11 peptide: GGSVPHPRCHCGAGR
Protocol: as §1

M1' peptide 10 = target: T12, M1' peptide 10; test: ELISA on coated antigen, relative OD450/650
T12 construct: see f1
T12 peptide: HPRCHCGAGRADWPG
Protocol: as §1

M1' peptide 11 = target: T13, M1' peptide 11; test: ELISA on coated antigen, relative OD450/650
T13 construct: see f1
T13 peptide: CGAGRADWPGPPELD
Protocol: as §1

M1' peptide 12 = target: T14, M1' peptide 12; test: ELISA on coated antigen, relative OD450/650
T14 construct: see f1
T14 peptide: ADWPGPPELDVCVEE
Protocol: as §1

M1' peptide 13 = target: T15, M1' peptide 13; test: ELISA on coated antigen, relative OD450/650
T15 construct: see f1
T15 peptide: PPELDVCVEEAEGEA
Protocol: as §1

M1′ peptide 8 = target: T16, M1′ peptide 8 (human); test: ELISA on coated antigen, relative OD450/650
T16 peptide: PRAAGGSVPHPRCH
Protocol: as §1

M1′ peptide 4 = target: T17, M1′ peptide 4 (human); test: ELISA on coated antigen, relative OD450/650
T17 peptide: SAQSQRAPDRVLCHS
Protocol: as §1

M1′ peptide 5 = target: T18, M1′ peptide 5 (human); test: ELISA on coated antigen, relative OD450/650
T18 peptide: RAPDRVLCHSGQQQG
Protocol: as §1

M1′ peptide 7 = target: T19, M1′ peptide 7 (human); test: ELISA on coated antigen, relative OD450/650
T19 peptide: GQQQGLPRAAGGSVP
Protocol: as §1

[5] = target: T3, human IgE with the M1′ sequence (long …); test: competitive ECL binding on BJAB-IgE/M1′ cells vs biotinylated 26A11 or 47H4, 2nd IC50 column
[6] = target: T1, human IgE CH3-CH4-M1′/Fc fusion protein; test: SPR Biacore A100, M1′ immobilized
[7] = target: T1, human IgE CH3-CH4-M1′/Fc fusion protein; test: SPR Biacore 2000, IgG immobilized, M1′-Fc analyte
[8] = target: T3, human IgE with the M1′ sequence (long …); test: competitive ECL binding on BJAB-IgE/M1′ cells vs biotinylated 26A11 or 47H4, 1st IC50 column
[9] = target: T3, human IgE with the M1′ sequence (long …); test: Scatchard, iodinated antibody on IgE/M1′ cells

T3 sequence (P01854 116-546 I515L limits assumed): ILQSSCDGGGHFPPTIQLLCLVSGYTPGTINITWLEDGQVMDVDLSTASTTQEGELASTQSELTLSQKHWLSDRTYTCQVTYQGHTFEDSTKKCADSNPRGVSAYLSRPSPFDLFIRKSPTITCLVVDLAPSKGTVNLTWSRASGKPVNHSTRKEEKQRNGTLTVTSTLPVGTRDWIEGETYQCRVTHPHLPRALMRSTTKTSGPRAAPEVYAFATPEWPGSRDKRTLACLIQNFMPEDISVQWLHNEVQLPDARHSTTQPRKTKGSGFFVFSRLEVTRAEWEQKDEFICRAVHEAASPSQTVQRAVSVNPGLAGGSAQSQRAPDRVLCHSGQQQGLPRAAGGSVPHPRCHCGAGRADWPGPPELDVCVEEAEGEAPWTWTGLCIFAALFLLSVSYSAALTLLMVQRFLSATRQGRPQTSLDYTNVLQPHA
T1 sequence (chain, as listed by the source limits assumed): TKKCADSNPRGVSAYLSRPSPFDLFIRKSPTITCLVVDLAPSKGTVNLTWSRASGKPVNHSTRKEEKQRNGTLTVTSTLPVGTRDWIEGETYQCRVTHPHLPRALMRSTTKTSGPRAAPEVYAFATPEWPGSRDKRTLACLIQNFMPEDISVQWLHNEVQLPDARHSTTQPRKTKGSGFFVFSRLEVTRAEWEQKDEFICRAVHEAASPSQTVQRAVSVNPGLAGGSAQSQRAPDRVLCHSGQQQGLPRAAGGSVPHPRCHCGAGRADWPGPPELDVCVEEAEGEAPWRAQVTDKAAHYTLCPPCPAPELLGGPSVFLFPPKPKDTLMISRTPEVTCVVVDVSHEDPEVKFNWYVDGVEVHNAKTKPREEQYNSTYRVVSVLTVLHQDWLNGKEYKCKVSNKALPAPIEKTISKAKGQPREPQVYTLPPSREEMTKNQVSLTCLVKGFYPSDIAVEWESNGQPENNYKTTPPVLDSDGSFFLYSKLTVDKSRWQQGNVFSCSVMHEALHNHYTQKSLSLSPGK

B1: humanized anti-IgE/M1′ antibody 47H4.v5 (antibody, V domains shown)
VH: EVQLVESGGGLVQPGGSLRLSCAASGFTFSDYGIAWVRQAPGKGLEWVAFISDLAYTIYYADTVTGRFTISRDNSKNTLYLQMNSLRAEDTAVYYCARDNWDAMDYWGQGTLVTVSS
VL: DIQMTQSPSSLSASVGDRVTITCRSSQSLVHNNANTYLHWYQQKPGKAPKLLIYKVSNRFSGVPSRFSGSGSGTDFTLTISSLQPEDFATYYCSQNTLVPWTFGQGTKVEIKR
notes: huIgG1; also called 47H4v5 huIgG1; 47H5 v.5
- Kd [1]: 23 nM
- Kd [2]: 2.5 nM
- Kd [3]: 1.5 nM
- Kd [4]: 1.3 nM
- binding result (M1' peptide 1): no binding
- binding result (M1' peptide 14): no binding
- binding result (M1' peptide 15): no binding
- binding result (M1' peptide 2): no binding
- binding result (M1' peptide 3): no binding
- binding result (M1' peptide 6): no binding
- binding result (M1' peptide 9): no binding
- binding result (M1' peptide 10): no binding
- binding result (M1' peptide 11): no binding
- binding result (M1' peptide 12): no binding
- binding result (M1' peptide 13): no binding
- binding result (M1′ peptide 8): no binding
- binding result (M1′ peptide 4): binds
- binding result (M1′ peptide 5): no binding
- binding result (M1′ peptide 7): no binding
- IC50 [5]: 60 nM

B2: humanized anti-IgE/M1′ antibody 26A11.v6 (antibody, V domains shown)
VH: EVQLVESGGGLVQPGGSLRLSCAASGYTFTDYYIMWVRQAPGKGLEWVGDINPNNYDTSYNQKFKGRFTISADTSKNTAYLQMNSLRAEDTAVYYCASKAYWGQGTLVTVSS
VL: DIQMTQSPSSLSASVGDRVTITCRSSQDISNYLNWYQQKPGKAPKLLIYSTSRLHSGVPSRFSGSGSGTDFTLTISSLQPEDFATYYCQQGHTLPWTFGQGTKVEIKR
notes: huIgG1; also called 26A11v6 huIgG1
- Kd [6]: 2.6 nM
- Kd [3]: 1.85 nM
- Kd [7]: 8.3 nM
- binding result (M1' peptide 1): no binding
- binding result (M1' peptide 14): no binding
- binding result (M1' peptide 15): no binding
- binding result (M1' peptide 2): no binding
- binding result (M1' peptide 3): no binding
- binding result (M1' peptide 6): no binding
- binding result (M1' peptide 9): no binding
- binding result (M1' peptide 10): no binding
- binding result (M1' peptide 11): no binding
- binding result (M1' peptide 12): no binding
- binding result (M1' peptide 13): no binding
- binding result (M1′ peptide 8): binds
- binding result (M1′ peptide 4): no binding
- binding result (M1′ peptide 5): no binding
- binding result (M1′ peptide 7): binds
- IC50 [8]: 11 nM
- IC50 [5]: 23 nM

B3: murine anti-IgE/M1′ antibody 7A6 (antibody, V domains shown)
VH: QVQLQQSGAELVRPGASVTLSCKASGYTFIDYEMHWVKQTPVHGLEWIGAIDPETGTTAYNQKFKGKATLTAAKSSSTAYMELRSLTSEDSAVYYCTRLRPHYDYDNAMDSWGQGTTLTVSS
VL: DIVMSQSPSSLTVSVGEKVTLSCKSSQTLLYSTNQKNYLAWYQQKPGQSPKLLIYWASTRESGVPDRFTGSGSGTDFTLTISSVKAEDLAVYYCQQYYSYPYTFGGGTKVEIKR
notes: mIgG1 hybridoma antibody; also called mu7A6; 7A6 mIgG1
- Kd [6]: 4.5 nM
- Kd [9]: 0.6 nM
- Kd [3]: 0.64 nM
- binding result (M1′ peptide 4): binds
- binding result (M1′ peptide 5): binds
- IC50 [8]: 52 nM

B4: humanized anti-IgE/M1′ antibody 7A6.v1 (antibody, V domains shown)
VH: EVQLVESGGGLVQPGGSLRLSCAASGYTFIDYEMHWVRQAPGKGLEWVGAIDPETGTTAYNQKFKGRFTISADTSKNTAYLQMNSLRAEDTAVYYCTRLRPHYDYDNAMDSWGQGTLVTVSS
VL: DIQMTQSPSSLSASVGDRVTITCKSSQTLLYSTNQKNYLAWYQQKPGKAPKLLIYWASTRESGVPSRFSGSGSGTDFTLTISSLQPEDFATYYCQQYYSYPYTFGQGTKVEIKR
notes: direct CDR graft, huIgG1; also called 7A6v1 huIgG1; 7A67v1 [sic]
- Kd [6]: 15 nM
- binding result (M1' peptide 1): no binding
- binding result (M1' peptide 14): no binding
- binding result (M1' peptide 15): no binding
- binding result (M1' peptide 2): no binding
- binding result (M1' peptide 3): no binding
- binding result (M1' peptide 6): no binding
- binding result (M1' peptide 9): no binding
- binding result (M1' peptide 10): no binding
- binding result (M1' peptide 11): no binding
- binding result (M1' peptide 12): no binding
- binding result (M1' peptide 13): no binding
- binding result (M1′ peptide 8): no binding
- binding result (M1′ peptide 4): binds
- binding result (M1′ peptide 5): binds
- binding result (M1′ peptide 7): no binding
- IC50 [8]: 39 nM
